Among the data in paper PMC10625565 are other: Protein ratio values, retold here.

The assay deals with GST-PpROP4CA (G15V). Description: pull-down (MBP pull-down, anti-GST western blot, band quantification). Conditions: three replicates; parent: est. 0.17; read off a plot.

With MBP-PpREN (wild type) R204L, the other: Protein ratio turned out to be 0.17.
